Experimental data: US20260250338A1 (Molecular Partners, published 2026)
Where a chain is given by its changes, count along the chain named.

T1: biotinylated cynomolgus CD16 target (bio-cCD16 of SEQ ID NO: 76) (cynomolgus monkey, biotinylated)
T1 construct: also called Cyno CD16a
T1 chain: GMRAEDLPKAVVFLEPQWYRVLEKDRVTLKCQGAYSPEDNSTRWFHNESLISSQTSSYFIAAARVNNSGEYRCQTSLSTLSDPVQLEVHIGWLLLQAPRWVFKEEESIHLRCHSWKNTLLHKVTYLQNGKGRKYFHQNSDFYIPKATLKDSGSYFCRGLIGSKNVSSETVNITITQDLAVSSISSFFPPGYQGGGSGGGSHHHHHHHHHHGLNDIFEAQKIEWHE

T2: CD32a expressed on Jurkat-NFAT-CD32a reporter cells (Invivogen jktl-nfat-cd32) (UniProt P12318 34-317, limits assumed)
T2 construct: whole, on cells; also called Jurkat-Lucia NFAT-CD32a Reporter cells; Fc receptor CD32a
T2 sequence (looked up): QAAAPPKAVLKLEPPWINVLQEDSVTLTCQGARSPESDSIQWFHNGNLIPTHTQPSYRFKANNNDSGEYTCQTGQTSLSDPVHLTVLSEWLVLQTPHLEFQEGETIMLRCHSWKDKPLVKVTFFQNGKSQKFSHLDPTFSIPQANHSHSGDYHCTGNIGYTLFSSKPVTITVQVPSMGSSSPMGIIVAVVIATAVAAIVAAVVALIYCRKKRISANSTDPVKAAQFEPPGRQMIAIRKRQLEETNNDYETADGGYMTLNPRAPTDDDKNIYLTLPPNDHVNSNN

B1: Construct No. 18 (SEQ ID NO: 21), 2D (HER2 × CD16a), DARPin #6 with N-terminal HER2 binder of SEQ ID NO: 9 (designed binder)
chain: MRGSHHHHHHDYKDDDDKPTPTPTGSDLGIKLLFAAAKGQDDEVRELLKAGADVNAKDFQGVTPLHIAAQSGHLEIVEVLLKAGADVNAKDVTGDTPLHLAAQHGHLEIVEVLLKAGADVNAQDERGWTPADLAADWGHEDIAEVLQKAAGSPTPTPTTPTPTPTTPTPTPTGSDLGKKLLEAAEEGQDDEVRELLKAGADVNAKDEWGSTPLHIAAWVGHLEIVEVLLKAGADVNAKDSLGATPLHLAAEAGHLEIVEVLLKAGADVNAQDLKGKTPADLAALEGHEDIAEVLQKAA
notes: Bispecific DARPin; also called Construct 18
B2: Construct No. 2 (1D CD16a; DARPin #3 of SEQ ID NO: 3 with N-terminal His tag) (designed binder)
chain: MRGSHHHHHHGSDLGKKLLQAARAGQLDEVRELLKAGADVNAKDEQGRTPLHIAAASGHLEIVEVLLKAGADVNAKDWFGITPLHIAAWWGHLEIVEVLLKAGADVNAKDQEGRTPLHIAAAIGHLEIVEVLLKAGADVNAQDKSGKTPADLAARAGHQDIAEVLQKAA
notes: also called Construct 2
B3: Construct No. 1 (1D CD16a; DARPin #2 of SEQ ID NO: 2 with N-terminal His tag) (designed binder)
chain: MRGSHHHHHHGSDLGQKLLRAAKKGQDDEVRELLKAGADVNAKDEQGWTPLHIAAWKGHLEIVEVLLKAGADVNAKDVFDWTPLHVAAHFGHLEIVEVLLKAGADVNAQDRAGETPADLAAQAGHEDIAEVLQKAA
notes: also called Construct 1
B4: DARPin #7 (SEQ ID NO: 7) with N-terminal His tag (designed binder)
chain: B3 chain with I53N
B5: Construct No. 4 (SEQ ID NO: 15), 2D (HER2 × CD16a), DARPin #3 with N-terminal HER2 binder of SEQ ID NO: 9 (designed binder)
chain: MRGSHHHHHHGSDLGIKLLFAAAKGQDDEVRELLKAGADVNAKDFQGVTPLHIAAQSGHLEIVEVLLKAGADVNAKDVTGDTPLHLAAQHGHLEIVEVLLKAGADVNAQDERGWTPADLAADWGHEDIAEVLQKAAGSPTPTPTTPTPTPTTPTPTPTGSDLGKKLLQAARAGQLDEVRELLKAGADVNAKDEQGRTPLHIAAASGHLEIVEVLLKAGADVNAKDWFGITPLHIAAWWGHLEIVEVLLKAGADVNAKDQEGRTPLHIAAAIGHLEIVEVLLKAGADVNAQDKSGKTPADLAARAGHQDIAEVLQKAA
notes: Bispecific DARPin; also called Construct 4
B6: Construct No. 7 (SEQ ID NO: 10), 2D (HER2 × CD16a), DARPin #2 with N-terminal HER2 binder of SEQ ID NO: 8 (designed binder)
chain: MRGSHHHHHHGSDLGKKLLEAARAGQDDEVRELLKAGADVNAKDEYGLTPLYLATAHGHLEIVEVLLKAGADVNAVDAIGFTPLHLAAFIGHLEIAEVLLKAGADVNAQDKFGKTPADIAAGAGNEDIAEVLQKAAGSPTPTPTTPTPTPTTPTPTPTGSDLGQKLLRAAKKGQDDEVRELLKAGADVNAKDEQGWTPLHIAAWKGHLEIVEVLLKAGADVNAKDVFDWTPLHVAAHFGHLEIVEVLLKAGADVNAQDRAGETPADLAAQAGHEDIAEVLQKAA
notes: Bispecific DARPin; also called Construct 7
B7: Construct No. 16 (SEQ ID NO: 19), 2D (HER2 × CD16a), DARPin #4 with N-terminal HER2 binder of SEQ ID NO: 9 (designed binder)
chain: MRGSHHHHHHDYKDDDDKPTPTPTGSDLGIKLLFAAAKGQDDEVRELLKAGADVNAKDFQGVTPLHIAAQSGHLEIVEVLLKAGADVNAKDVTGDTPLHLAAQHGHLEIVEVLLKAGADVNAQDERGWTPADLAADWGHEDIAEVLQKAAGSPTPTPTTPTPTPTTPTPTPTGSDLGEKLLLAAALGQDDEVRELLKAGADVNAKDVQGSTPLHLAAVEGHLEIVEVLLKAGADVNAKDQWGQTPLHVAAIWGHLEIVEVLLKAGADVNAQDELGKTPADLVALQGHEDIAEVLQKAA
notes: Bispecific DARPin; also called Construct 16
B8: Construct No. 17 (SEQ ID NO: 20), 2D (HER2 × CD16a), DARPin #5 with N-terminal HER2 binder of SEQ ID NO: 9 (designed binder)
chain: MRGSHHHHHHDYKDDDDKPTPTPTGSDLGIKLLFAAAKGQDDEVRELLKAGADVNAKDFQGVTPLHIAAQSGHLEIVEVLLKAGADVNAKDVTGDTPLHLAAQHGHLEIVEVLLKAGADVNAQDERGWTPADLAADWGHEDIAEVLQKAAGSPTPTPTTPTPTPTTPTPTPTGSDLGAKLLRAAKKGQDDEVRELLKAGADVNAKDELGFTPLHVAAEEGHLEIVEVLLKAGADVNAKDSWGATPLHVAAWVGHLEIVEVLLKAGADVNAQDQEGQTPADLAAEAGHEDIAEVLQKAA
notes: Bispecific DARPin; also called Construct 17
B9: Construct No. 3 (SEQ ID NO: 13), 2D (CD16a × HER2), DARPin #2 with C-terminal HER2 binder of SEQ ID NO: 9 (designed binder)
chain: MRGSHHHHHHGSDLGQKLLRAAKKGQDDEVRELLKAGADVNAKDEQGWTPLHIAAWKGHLEIVEVLLKAGADVNAKDVFDWTPLHVAAHFGHLEIVEVLLKAGADVNAQDRAGETPADLAAQAGHEDIAEVLQKAAGSPTPTPTTPTPTPTTPTPTPTGSDLGIKLLFAAAKGQDDEVRELLKAGADVNAKDFQGVTPLHIAAQSGHLEIVEVLLKAGADVNAKDVTGDTPLHLAAQHGHLEIVEVLLKAGADVNAQDERGWTPADLAADWGHEDIAEVLQKAA
notes: Bispecific DARPin; also called Construct 3

How the values were obtained:
[1] = target: T3, full length human CD16b stably expressed on transduced WT Jurkat cells (human, UniProt O75015 17-200); experiment: flow cytometry on Jurkat-CD16b cells, serial dilutions, detection with Penta-His Alexa Fluor 647
T3 construct: whole, on cells; also called CD16b expressing cells; Jurkat CD16b
T3 sequence (O75015 17-200): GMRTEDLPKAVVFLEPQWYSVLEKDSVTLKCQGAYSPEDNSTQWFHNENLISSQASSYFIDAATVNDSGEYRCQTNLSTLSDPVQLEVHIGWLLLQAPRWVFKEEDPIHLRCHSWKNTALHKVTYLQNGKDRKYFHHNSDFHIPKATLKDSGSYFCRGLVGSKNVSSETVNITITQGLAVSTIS

[2] = target: T4, CD16aV allotype of human CD16a expressed on Jurkat-Lucia-NFAT-CD16 Reporter cells (InvivoGen) (human, UniProt P08637 17-254); experiment: flow cytometry on Jurkat-CD16aV cells, serial dilutions, detection with Penta-His Alexa Fluor 647
T4 construct: whole, on cells; also called CD16a expressing cells; Jurkat CD16aV
T4 sequence (P08637 17-254 F176V): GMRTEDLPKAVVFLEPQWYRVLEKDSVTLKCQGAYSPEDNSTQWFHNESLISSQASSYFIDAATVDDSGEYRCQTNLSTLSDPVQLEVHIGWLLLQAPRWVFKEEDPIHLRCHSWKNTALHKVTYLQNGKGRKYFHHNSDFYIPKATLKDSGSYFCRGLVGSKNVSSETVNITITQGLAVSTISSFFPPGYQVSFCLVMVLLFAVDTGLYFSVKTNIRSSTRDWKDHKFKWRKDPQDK

[3] = target: T3, full length human CD16b stably …; experiment: flow cytometry on Jurkat-CD16b cells, 5-fold serial dilutions, detection with Penta-His Alexa Fluor 488
Experimental: (§1) Serial dilutions (5-fold) of the constructs were incubated 30 min at 4° C. with 50000 cells in a 96-well plate. […] Cold buffer was added, then cells were spun down prior to supernatant removal. Cells were then fixed with Cell fix buffer (BD) and signal was measured by flow cytometry.

[4] = target: T4, CD16aV allotype of human CD16a …; experiment: flow cytometry on Jurkat-CD16aV cells, 5-fold serial dilutions, detection with Penta-His Alexa Fluor 488
Experimental: as §1

[5] = target: T5, biotinylated human CD16aV target (bio-CD16aV of SEQ ID NO: 72) (human, UniProt P08637 17-208, biotinylated (Sulfo-NHS-LC-Biotin kit)); experiment: SPR (ProteOn XPR36), bio-CD16aV immobilised on NLC chip, construct injected at 100 nM and 1:3 dilutions, PBST, 1:1 Langmuir fit
T5 construct: also called recombinant CD16a target
T5 sequence (P08637 other isoform, or with tags, fused parts or gaps): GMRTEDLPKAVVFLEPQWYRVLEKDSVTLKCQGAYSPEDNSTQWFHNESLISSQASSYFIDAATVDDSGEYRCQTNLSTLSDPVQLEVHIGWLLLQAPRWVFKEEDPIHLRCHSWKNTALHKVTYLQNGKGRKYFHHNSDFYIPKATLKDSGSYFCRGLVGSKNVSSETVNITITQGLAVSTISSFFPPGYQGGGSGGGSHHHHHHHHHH
Experimental: SPR measurements were performed using a ProteOn XPR36 instrument (BioRad). […] The signals were double referenced against the running buffer (PBST) treated control lanes.

[6] = target: T5, biotinylated human CD16aV target …; experiment: SPR (ProteOn XPR36), biotinylated target on neutravidin chip, DARPin injected at 100 nM and 1:3 dilutions, 1:1 Langmuir fit
Experimental: (§2) SPR measurements were performed using a ProteOn XPR36 instrument (BioRad). Each of biotinylated human target (bio-CD16aV of SEQ ID NO: 72) and biotinylated cyno target (bio-cCD16 of SEQ ID NO: 76) were immobilized on a neutravidin chip (NAHLC200M, Xantec ProteOn Sensor Chip) to a level of about 320 RU. The interactions of purified CD16a-specific ankyrin construct with bio-CD16aV or bio-cCD16 were measured by injecting the DARPins at 100 nM (and 1:3 dilutions) with an association of 180 s and dissociation of 600 s using a constant flow of 30 μl/min. The target was regenerated between the individual measurements using 31 mM H3PO4. The signals were double referenced against the running buffer (PBST) treated control lanes. The KD were calculated with a 1:1 Langmuir model fitting from the estimated on- and off-rates using standard procedures known to the person skilled in the art.

[7] = target: T1, biotinylated cynomolgus CD16 target …; experiment: as above
Experimental: as §2

[8] = target: T4, CD16aV allotype of human CD16a …; experiment: cell-based or functional assay
[9] = target: T4, CD16aV allotype of human CD16a …; experiment: cell-based or functional assay; remark: listed apart in the source
[10] = target: T2, CD32a expressed on Jurkat-NFAT-CD32a …; experiment: flow cytometry on Jurkat-NFAT-CD32a cells, 4-fold serial dilutions, detection with anti-DARPin 1.1.1 antibody
Experimental: Serial dilutions (4-fold) of the constructs were incubated 30 min at 4° C. with 50000 cells in a 96-well plate. Detection antibody (anti-DARPin 1.1.1 Alexa Fluor […]) was subsequently added to the wells (2 μg/ml diluted in FACS buffer) and incubated at 4° C. for 30 min. Cold buffer was added, then cells were spun down prior to supernatant removal. Cells were then fixed with Cell fix buffer (BD) and signal was measured by flow cytometry.

Binder	binding result [1]	binding result [2]	binding result [3]	EC50 (pM), ADCC reporter assay (luminescence), SKOV3 target cells, E:T 5:1, 5 h [8] [pM]	also measured
B1	no binding (tested: 1000 nM)	binds	–	–	–
B2	–	–	no binding (tested: 1000 nM)	–	EC50 (read off the curve) [4]: ~20 nM
B3	–	–	no binding (tested: 1000 nM)	–	binding result [4]: binds; Kd [5]: 3.3 nM; Kd [6]: 5.94 nM; Kd [7]: 3.41 nM
B4	–	–	–	–	Kd [6]: 1.98 nM; Kd [7]: 0.904 nM
B5	–	–	no binding (tested: 1000 nM)	0.7	–
B6	–	–	–	0.37	EC50 ADCC reporter assay (CD16a) (pM), SKOV3 target cells, E:T 1:1, 24 h [9]: 4 pM; binding result [10]: no binding (tested: 400 nM)
B7	no binding (tested: 1000 nM)	binds	–	–	–
B8	no binding (tested: 1000 nM)	binds	–	–	–
B9	–	–	no binding (tested: 1000 nM)	0.19	binding result [10]: no binding (tested: 400 nM)
